We go through one molecule from patent publication US20220073616A1 (Merck KGaA, published 2022).

As a reminder, the Kd is the constant that tells how readily two partners part at equilibrium. For orientation: IC50 means the midpoint of a concentration-inhibition curve. Low values mean greater potency, high ones weaker potency. As usually defined, the EC50 is the midpoint of the concentration-response curve. In general, EC50 (read off the curve) refers to the concentration needed to bring the measured effect to its halfway point. Higher therefore signals lower potency in that assay.

Assay [1] has as its target T1, wild-type human TIM-3 (hu TIM-3) (human, UniProt Q8TDQ0 22-200, limits assumed).
T1 construct: Soluble protein used for SPR; also called wild-type TIM-3
Kind of assay: SPR (Biacore 4000), antibody captured via anti-human Fc. (SPR reads the build-up and loss of mass on a sensor chip optically.)

Assay [2] deals with T1, wild-type human TIM-3 (hu TIM-3). Described as above. The source holds these as a separate data set.
The next assay addresses T2, rhTIM-3-Fc AF647 (human, UniProt Q8TDQ0 22-200, AF647 label).
T2 construct: also called rhTIM-3 AF647; not shown: Fc part
Kind of assay: flow cytometry; M6903 pre-incubated with rhTIM-3-Fc AF647, inhibition of its binding to PtdSer on apoptotic Jurkat cells. A general note: In flow cytometry, cells or beads pass a laser one at a time.

For assay [3], the target named is T3, T Cell Immunoglobulin and Mucin Domain-3 (TIM-3) on human blood cells (human, UniProt Q8TDQ0 22-301).
T3 construct: whole, on cells; also called TIM-3 on CD14+ monocytes; HAVCR2
Kind of assay: flow cytometry, target occupancy on CD14+ monocytes in human whole blood; unoccupied TIM-3 detected with the competing anti-TIM-3(2E2)-APC; average of 10 donors.

Assay [4] deals with T3, T Cell Immunoglobulin and Mucin …. Kind of assay: Flow cytometry on human whole blood, target occupancy on CD14+ monocytes, donor KP46231. Unoccupied TIM-3 was detected with the competing anti-TIM-3 (2E2)-APC.
For assay [5] the target is unchanged. Kind of assay: Flow cytometry on human whole blood, target occupancy on CD14+ monocytes, donor KP46315. Unoccupied TIM-3 was detected with the competing anti-TIM-3 (2E2)-APC.
For assay [6] the target is unchanged. Briefly: Flow cytometry on human whole blood, target occupancy on CD14+ monocytes, donor KP46318 (assigned by elimination of the other line styles). Unoccupied TIM-3 was detected with the competing anti-TIM-3 (2E2)-APC.

Like-named read-outs stand apart in the source and are kept apart here.

B1: M6903 (anti-TIM3-3903E11(VL1.3,VH1.2)-IgG2h(FN-AQ,322A)-delK) (antibody, V domains shown)
VH: not shown
VL: QSALTQPRSVSGSPGQSVTISCTGTSSDVGGYNYVSWYQQHPGKAPKLMIYDVSKRPSGVPDRFSGSKSGNTASLTISGLQAEDEADYYCSSYADSVVFGGGTKVTVLG
notes: Anti-TIM-3 (A16-019-1), used in the target occupancy assay, is said to be identical to M6903 but produced in Expi293F instead of CHOK1SV cells; it is kept under this molecule; also called 3903E11 (VL1.3,VH1.2)-IgG2h(FN-AQ,322A)-delK antibody; anti-TIM-3 (A16-019-1)
For B1, the Kd in assay [1] was found to be 6.2 nM; in assay [2], 5.7 nM. The molecule further showed an IC50 in the assay with rhTIM-3-Fc AF647 of 4.44 nM. In addition, the half-maximal effective concentration (EC50) in assay [3] stood at 0.111 µg/mL. Further, the “EC50 (read off the curve)” value in assay [4], in assay [5] and in assay [6] was ~70 ng/mL in each case.
